Common to all, as to assay type: binding
Assay [1] in a line: Probe fluorescence ratio response to linoleate:BSA complex, relative to ADIFAB2 (ΔR/ΔRAD2). The settings on record: fluorescence response (R-Ro) relative to ADIFAB2; linoleate. An outline of the steps:
(§1)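 Complexes clamp unbound FFA at fixed levels (ΔR ≈0.4 by ADIFAB2, [FFAu] 100–1000 nM). Plate wells: complex or FFA-free BSA at 6 μM BSA in HEPES; probe added after background read. Ex 375/em 550 and 457 nm; ratio R = F550/F457.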

Assay [2] can be described thus: Probe fluorescence ratio response to arachidonate:BSA complex, relative to ADIFAB2 (ΔR/ΔRAD2). As to conditions: fluorescence response (R-Ro) relative to ADIFAB2; arachidonate. In a few lines: as §1
A short description of assay [3]: Probe fluorescence ratio response to palmitate:BSA complex, relative to ADIFAB2 (ΔR/ΔRAD2). The settings on record: fluorescence response (R-Ro) relative to ADIFAB2; palmitate. An outline of the steps: as §1
Assay [4] can be described thus: Probe fluorescence ratio response to linolenate:BSA complex, relative to ADIFAB2 (ΔR/ΔRAD2). As to conditions: fluorescence response (R-Ro) relative to ADIFAB2; linolenate. An outline of the steps:
as §1

Assay [5] can be described thus: Probe fluorescence ratio response to oleate:BSA complex, relative to ADIFAB2 (ΔR/ΔRAD2). As to conditions: fluorescence response (R-Ro) relative to ADIFAB2; oleate. An outline of the steps: as §1
Assay [6] is described as follows: Probe fluorescence ratio response to stearate:BSA complex, relative to ADIFAB2 (ΔR/ΔRAD2). The settings on record: fluorescence response (R-Ro) relative to ADIFAB2.
A short description of assay [7]: Probe fluorescence ratio response to palmitoleate:BSA complex, relative to ADIFAB2 (ΔR/ΔRAD2). The settings on record: fluorescence response (R-Ro) relative to ADIFAB2.

Numbering of substitutions follows the chain as printed. In names and notes the source's numbering stands.

B1: L1P11 F12: acrylodan-labeled rI-FABP mutein: Y14 L, L38 I, L72 wt, Y117 wt (protein, UniProt P02693 2-132, looked up, variant Y14L L38I)
Fatty acid-binding protein, …: AFDGTWKVDRNENLEKFMEKMGINVVKRKLGAHDNLKITITQEGNKFTVKESSNFRNIDVVFELGVDFAYSLADGTELTGTWTMEGNKLVGKFKRVDNGKELIAVREISGNELIQTYTYEGVEAKRIFKKE
modifications: acrylodan label
For B1, the “ΔR/ΔRAD2 LA” value in assay [1] came out at 1.1. Further, in assay [2], the “ΔR/ΔRAD2 AA” value was found to be 1.0. Further, in assay [3], the “ΔR/ΔRAD2 PA” value turned out to be 0.7. Besides, the “ΔR/ΔRAD2 LNA” value in assay [4] came out at 1.2. For the same molecule, the “ΔR/ΔRAD2 OA” value in assay [5] was 0.7.

B2: L2P9E12: acrylodan-labeled rI-FABP-L72A mutein: M18 L, G31 WT, F55 L, A73 I (protein, UniProt P02693 2-132, looked up, variant M18L F55L L72A A73I)
Fatty acid-binding protein, …: B1 Fatty acid-binding protein, … with L14Y, M18L, I38L, F55L, L72A, A73I
modifications: acrylodan label
notes: acrylodan-labeled rI-FABP-L72A mutein: M18 L, G31 WT, F55 L, A73 I
Turning to B2, the “ΔR/ΔRAD2 LA” value in assay [1] came to 0.7. Also, the “ΔR/ΔRAD2 AA” value in assay [2] is 0.6. Also, the “ΔR/ΔRAD2 PA” value in assay [3] was 1.1. Besides, the “ΔR/ΔRAD2 SA” value in assay [6] worked out at 0.4. For the same molecule, the “ΔR/ΔRAD2 LNA” value in assay [4] was found to be 0.9. Further, the “ΔR/ΔRAD2 OA” value in assay [5] is on record as 0.6. In assay [7], the “ΔR/ΔRAD2 POA” value was 0.8.

B3: L1P5 A10: acrylodan-labeled rI-FABP mutein: Y14 wt, L38 wt, L72 wt, Y117 A (protein, UniProt P02693 2-132, looked up, variant Y117A)
Fatty acid-binding protein, …: B1 Fatty acid-binding protein, … with L14Y, I38L, Y117A
modifications: acrylodan label
notes: acrylodan-labeled rI-FABP mutein: Y14 wt, L38 wt, L72 wt, Y117 A
Take B3: the “ΔR/ΔRAD2 LA” value in assay [1] is 1.2. For the same molecule, in assay [2], the “ΔR/ΔRAD2 AA” value was 1.5. In addition, in assay [3], the “ΔR/ΔRAD2 PA” value is on record as 0.4. The “ΔR/ΔRAD2 LNA” value in assay [4] is recorded as 0.7. In addition, the “ΔR/ΔRAD2 OA” value in assay [5] was found to be 1.1.

B4: L2P8F11: acrylodan-labeled rI-FABP-L72A mutein: M18 WT, G31 WT, F55 WT, A73 I (protein, UniProt P02693 2-132, looked up, variant L72A A73I)
Fatty acid-binding protein, …: B1 Fatty acid-binding protein, … with L14Y, I38L, L72A, A73I
modifications: acrylodan label
notes: acrylodan-labeled rI-FABP-L72A mutein: M18 WT, G31 WT, F55 WT, A73 I
Consider B4, for which the “ΔR/ΔRAD2 LA” value in assay [1] is 0.0. Further, in assay [2], the “ΔR/ΔRAD2 AA” value is given as 0.4. For the same molecule, in assay [3], the “ΔR/ΔRAD2 PA” value is reported as 0.0. For the same molecule, the “ΔR/ΔRAD2 SA” value in assay [6] was found to be 0.3. Further, the “ΔR/ΔRAD2 LNA” value in assay [4] was determined as 0.1. The “ΔR/ΔRAD2 OA” value in assay [5] is 0.0. The “ΔR/ΔRAD2 POA” value in assay [7] is 0.1.

B5: L1P17 A8: acrylodan-labeled rI-FABP mutein: Y14 wt, L38 M, L72 G, Y117 F (protein, UniProt P02693 2-132, looked up, variant L38M L72G Y117F)
Fatty acid-binding protein, …: B1 Fatty acid-binding protein, … with L14Y, I38M, L72G, Y117F
modifications: acrylodan label
notes: acrylodan-labeled rI-FABP mutein: Y14 wt, L38 M, L72 G, Y117 F
B5: in assay [1], the “ΔR/ΔRAD2 LA” value came to 0.8. Besides, in assay [2], the “ΔR/ΔRAD2 AA” value is 1.3. Moreover, the “ΔR/ΔRAD2 PA” value in assay [3] amounted to 0.4. The “ΔR/ΔRAD2 LNA” value in assay [4] came to 0.7. Further, the “ΔR/ΔRAD2 OA” value in assay [5] was 0.7.

B6: L1P7 H4: acrylodan-labeled rI-FABP mutein: Y14 I, L38 M, L72 W, Y117 wt (protein, UniProt P02693 2-132, looked up, variant Y14I L38M L72W)
Fatty acid-binding protein, …: B1 Fatty acid-binding protein, … with L14I, I38M, L72W
modifications: acrylodan label
notes: acrylodan-labeled rI-FABP mutein: Y14 I, L38 M, L72 W, Y117 wt
Turning to B6, the “ΔR/ΔRAD2 LA” value in assay [1] is −1.3. The “ΔR/ΔRAD2 AA” value in assay [2] was −1.0. Also, in assay [3], the “ΔR/ΔRAD2 PA” value is −0.6. Moreover, the “ΔR/ΔRAD2 LNA” value in assay [4] is recorded as −1.1. Also, the “ΔR/ΔRAD2 OA” value in assay [5] was −1.4.

B7: L1P17 A1: acrylodan-labeled rI-FABP mutein: Y14 I, L38 wt, L72 W, Y117 wt (protein, UniProt P02693 2-132, looked up, variant Y14I L72W)
Fatty acid-binding protein, …: B1 Fatty acid-binding protein, … with L14I, I38L, L72W
modifications: acrylodan label
Turning to B7, in assay [1], the “ΔR/ΔRAD2 LA” value is on record as −1.0. Also, in assay [2], the “ΔR/ΔRAD2 AA” value is −0.8. In addition, the “ΔR/ΔRAD2 PA” value in assay [3] was −0.4. Further, in assay [4], the “ΔR/ΔRAD2 LNA” value is listed as −0.9. Besides, the “ΔR/ΔRAD2 OA” value in assay [5] is −1.2.

B8: L1P1 C3: acrylodan-labeled rI-FABP mutein: Y14 M, L38 wt, L72 W, Y117 wt (protein, UniProt P02693 2-132, looked up, variant Y14M L72W)
Fatty acid-binding protein, …: B1 Fatty acid-binding protein, … with L14M, I38L, L72W
modifications: acrylodan label
As for B8, the “ΔR/ΔRAD2 LA” value in assay [1] is given as −1.1. Besides, the “ΔR/ΔRAD2 AA” value in assay [2] is reported as −0.9. Also, the “ΔR/ΔRAD2 PA” value in assay [3] is −0.4. Besides, the “ΔR/ΔRAD2 LNA” value in assay [4] is recorded as −1.0. The “ΔR/ΔRAD2 OA” value in assay [5] is listed as −1.3.

B9: L1P16 G10: acrylodan-labeled rI-FABP mutein: Y14 W, L38 wt, L72 M, Y117 A (protein, UniProt P02693 2-132, looked up, variant Y14W L72M Y117A)
Fatty acid-binding protein, …: B1 Fatty acid-binding protein, … with L14W, I38L, L72M, Y117A
modifications: acrylodan label
notes: acrylodan-labeled rI-FABP mutein: Y14 W, L38 wt, L72 M, Y117 A
Take B9: the “ΔR/ΔRAD2 LA” value in assay [1] came out at 1.1. The “ΔR/ΔRAD2 AA” value in assay [2] turned out to be 0.9. For the same molecule, the “ΔR/ΔRAD2 PA” value in assay [3] was determined as 0.8. Also, the “ΔR/ΔRAD2 LNA” value in assay [4] is 1.3. Further, in assay [5], the “ΔR/ΔRAD2 OA” value is reported as 0.7.

B10: L1P12 E11: acrylodan-labeled rI-FABP mutein: Y14 L, L38 wt, L72 W, Y117 wt (protein, UniProt P02693 2-132, looked up, variant Y14L L72W)
Fatty acid-binding protein, …: B1 Fatty acid-binding protein, … with I38L, L72W
modifications: acrylodan label
As for B10, the “ΔR/ΔRAD2 LA” value in assay [1] was −0.7. Also, the “ΔR/ΔRAD2 AA” value in assay [2] is −0.5. The “ΔR/ΔRAD2 PA” value in assay [3] is reported as −0.1. In addition, the “ΔR/ΔRAD2 LNA” value in assay [4] is given as −0.7. In assay [5], the “ΔR/ΔRAD2 OA” value was −1.0.

B11: L2P1E6: acrylodan-labeled rI-FABP-L72A mutein: M18 L, G31 WT, F55 WT, A73 L (protein, UniProt P02693 2-132, looked up, variant M18L L72A A73L)
Fatty acid-binding protein, …: B1 Fatty acid-binding protein, … with L14Y, M18L, I38L, L72A, A73L
modifications: acrylodan label
With B11, the “ΔR/ΔRAD2 LA” value in assay [1] was found to be 0.1. In assay [2], the “ΔR/ΔRAD2 AA” value turned out to be 0.4. For the same molecule, the “ΔR/ΔRAD2 PA” value in assay [3] worked out at 0.0. Further, the “ΔR/ΔRAD2 SA” value in assay [6] came to 0.2. In addition, in assay [4], the “ΔR/ΔRAD2 LNA” value amounted to 0.1. Further, the “ΔR/ΔRAD2 OA” value in assay [5] is 0.1. Also, the “ΔR/ΔRAD2 POA” value in assay [7] stood at 0.1.

B12: L1P9 G10: acrylodan-labeled rI-FABP mutein: Y14 wt, L38 I, L72 G, Y117 wt (protein, UniProt P02693 2-132, looked up, variant L38I L72G)
Fatty acid-binding protein, …: B1 Fatty acid-binding protein, … with L14Y, L72G
modifications: acrylodan label
Consider B12, for which the “ΔR/ΔRAD2 LA” value in assay [1] is 0.8. The “ΔR/ΔRAD2 AA” value in assay [2] is reported as 1.0. Moreover, the “ΔR/ΔRAD2 PA” value in assay [3] is 0.4. Besides, in assay [4], the “ΔR/ΔRAD2 LNA” value was 0.7. Besides, the “ΔR/ΔRAD2 OA” value in assay [5] is given as 0.9.

B13: L1P8 D4: acrylodan-labeled rI-FABP mutein: Y14 M, L38 wt, L72 M, Y117 A (protein, UniProt P02693 2-132, looked up, variant Y14M L72M Y117A)
Fatty acid-binding protein, …: B1 Fatty acid-binding protein, … with L14M, I38L, L72M, Y117A
modifications: acrylodan label
notes: acrylodan-labeled rI-FABP mutein: Y14 M, L38 wt, L72 M, Y117 A
Turning to B13, the “ΔR/ΔRAD2 LA” value in assay [1] turned out to be 2.0. Also, the “ΔR/ΔRAD2 AA” value in assay [2] stood at 1.6. Moreover, the “ΔR/ΔRAD2 PA” value in assay [3] is given as 0.9. The “ΔR/ΔRAD2 LNA” value in assay [4] came to 2.0. Moreover, the “ΔR/ΔRAD2 OA” value in assay [5] is given as 1.1.

B14: L1P8 H2: acrylodan-labeled rI-FABP mutein: Y14 M, L38 M, L72 W, Y117 wt (protein, UniProt P02693 2-132, looked up, variant Y14M L38M L72W)
Fatty acid-binding protein, …: B1 Fatty acid-binding protein, … with L14M, I38M, L72W
modifications: acrylodan label
notes: acrylodan-labeled rI-FABP mutein: Y14 M, L38 M, L72 W, Y117 wt
For B14, the “ΔR/ΔRAD2 LA” value in assay [1] is reported as −1.5. The “ΔR/ΔRAD2 AA” value in assay [2] is reported as −1.3. The “ΔR/ΔRAD2 PA” value in assay [3] was −0.6. In addition, the “ΔR/ΔRAD2 LNA” value in assay [4] was −1.3. The “ΔR/ΔRAD2 OA” value in assay [5] is reported as −1.7.
